Data: PMC12263435, “Mechanistic basis for PYROXD1-mediated protection of the human tRNA ligase complex against oxidative inactivation” (Nature Structural & Molecular Biology, 2025)
Changes are numbered by the printed parent chain. In names and notes the source's numbering stands. Values belong to the molecule of their own block, whether it stands above or below them.

Legend:
RTCB (with Archease) = target: T1, RTCB (with Archease) (Homo sapiens, UniProt Q9Y3I0); experiment: guanylylation of RTCB, intact-protein LC-MS; format: biochemical; settings: covalent GMP adduct on RTCB His428, 2.5 mM MnCl2, 0.5 mM GTP, 20 mM HEPES pH 8.0, 25 °C
T1 construct: RTCB, N-terminal tag cut by TEV, Sf9; Archease residues 27-168, His6-MBP cut, E. coli; with Protein archease
T1 sequence (Q9Y3I0 1-505): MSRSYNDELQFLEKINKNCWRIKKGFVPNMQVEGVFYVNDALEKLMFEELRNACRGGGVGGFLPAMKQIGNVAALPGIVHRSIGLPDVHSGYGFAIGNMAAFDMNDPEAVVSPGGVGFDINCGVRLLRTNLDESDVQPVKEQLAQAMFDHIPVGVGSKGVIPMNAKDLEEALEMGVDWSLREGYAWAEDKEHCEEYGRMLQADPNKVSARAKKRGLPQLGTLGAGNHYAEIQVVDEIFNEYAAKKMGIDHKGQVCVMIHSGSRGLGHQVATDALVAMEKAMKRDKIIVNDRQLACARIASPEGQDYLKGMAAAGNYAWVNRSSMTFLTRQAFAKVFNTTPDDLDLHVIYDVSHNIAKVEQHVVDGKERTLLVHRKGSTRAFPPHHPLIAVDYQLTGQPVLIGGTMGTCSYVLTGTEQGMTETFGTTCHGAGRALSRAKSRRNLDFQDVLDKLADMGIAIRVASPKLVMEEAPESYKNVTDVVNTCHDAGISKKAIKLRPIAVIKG
T1 sequence (Q8IWT0 27-167 partner): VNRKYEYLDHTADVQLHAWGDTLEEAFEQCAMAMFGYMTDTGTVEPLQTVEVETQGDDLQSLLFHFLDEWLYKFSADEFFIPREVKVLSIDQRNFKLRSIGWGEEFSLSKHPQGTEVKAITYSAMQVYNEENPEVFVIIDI

RTCB–PYROXD1 complex = target: T2, RTCB–PYROXD1 complex (Homo sapiens, UniProt Q8WU10); experiment: cryo-EM structure, […] Å; format: binding; settings: prepared with 0.5 mM NADH, 5 mM MgCl2, pH 8.0, redox state NAD+ inferred (charge-transfer complex), PYROXD1 active site
T2 construct: PYROXD1 (GST cut, E. coli) with RTCB (N-terminal tag cut by TEV, Sf9); 1:1 complex with Mg2+ in RTCB; with RNA-splicing ligase RtcB homolog
T2 sequence (Q8WU10 1-500): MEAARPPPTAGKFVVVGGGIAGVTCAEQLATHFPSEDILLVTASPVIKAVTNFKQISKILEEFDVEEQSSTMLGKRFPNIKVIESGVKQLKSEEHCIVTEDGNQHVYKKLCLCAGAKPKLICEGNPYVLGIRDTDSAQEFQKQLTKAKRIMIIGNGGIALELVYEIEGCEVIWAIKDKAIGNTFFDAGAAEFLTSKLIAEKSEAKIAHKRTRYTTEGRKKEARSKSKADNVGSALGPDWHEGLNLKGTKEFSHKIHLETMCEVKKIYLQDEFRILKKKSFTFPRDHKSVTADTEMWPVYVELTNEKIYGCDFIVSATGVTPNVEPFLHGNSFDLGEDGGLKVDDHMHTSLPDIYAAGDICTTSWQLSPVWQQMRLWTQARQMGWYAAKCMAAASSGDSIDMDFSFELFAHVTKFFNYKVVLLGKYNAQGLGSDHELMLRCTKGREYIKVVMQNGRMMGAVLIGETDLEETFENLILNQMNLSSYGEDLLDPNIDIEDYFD
T2 sequence (Q9Y3I0 1-505 partner): T1 sequence (Q9Y3I0 1-505)

RTCB = target: T3, RTCB (human, UniProt Q9Y3I0 1-505); experiment: cryo-EM structure; 100 µM RTCB mixed 1:1 with 100 µM PYROXD1 in 20 mM HEPES pH 8.0, 150 mM NaCl, 0.5 mM TCEP, 5 mM MgCl2, 0.5 mM NADH; SEC; single-particle cryo-EM; settings: both partners purified
T3 construct: human RTCB (UniProt Q9Y3I0); inserted into the 438B plasmid (N-terminal hexahistidine tag, TEV site); the tag is removed by TEV in either case; also called apo-RTCB; un-guanylylated RTCB; source: Sf9 insect cells (baculovirus), purified (Ni-NTA, TEV cleavage, SEC); not shown: His6, N-terminal, cleaved
T3 sequence: T1 sequence (Q9Y3I0 1-505)

StrepII–GFP–RTCB [1] = target: T4, StrepII–GFP–RTCB (human, UniProt Q9Y3I0 1-505); experiment: pull-down; dissociation kinetics: complex formed with 0.5 mM NADH and 5 mM MgCl2, held on Strep-Tactin beads via StrepII–GFP–RTCB, NADH and unbound PYROXD1 washed out, bound PYROXD1 followed over time under aerobic conditions; Coomassie Blue; settings: both partners purified
T4 construct: human RTCB (UniProt Q9Y3I0), catalytic subunit of the tRNA ligase complex; inserted into the 438-Rgfp plasmid; a TEV site lies between GFP and RTCB; In the dissociation assay it is called 2× StrepII–GFP–RTCB; also called immobilized RTCB; 2× StrepII–GFP–RTCB; source: Sf9 insect cells (baculovirus), purified (Strep-Tactin, SEC); not shown: StrepII, N-terminal, kept; super folder green fluorescent …
T4 sequence: T1 sequence (Q9Y3I0 1-505)

purified protein = substrate: NC(=O)C1=CN([C@@H]2O[C@H](COP(=O)(O)OP(=O)(O)OC[C@H]3O[C@@H](n4cnc5c(N)ncnc54)[C@H](O)[C@@H]3O)[C@@H](O)[C@H]2O)C=CC1; experiment: purified protein; format: biochemical, Homo sapiens; settings: aerobic (O2 as acceptor), 20 mM Tris-HCl pH 8.0, 150 mM KCl, 0.05% Tween-20, 22 °C
StrepII–GFP–RTCB [2] = target: T4, StrepII–GFP–RTCB; experiment: pull-down; StrepII–GFP–RTCB (0.2 nmol) immobilised on MagStrep type 3 XT beads, 0.4 nmol PYROXD1; HEPES pH 8.0, 150 mM KCl, 0.1% Tween-20, 1 mM TCEP, 0.5 mM NADH, 2.5 mM MgCl2, 2.5 mM MnCl2; 30 min at 4 °C; SDS–PAGE, Coomassie Blue; settings: both partners purified

Molecule: Nc1nc2c(ncn2[C@@H]2O[C@H](COP(=O)(O)OP(=O)(O)OP(=O)(O)O)[C@@H](O)[C@H]2O)c(=O)[nH]1 [GTP]
- guanylylation of RTCB, intact-protein LC-MS (RTCB (with Archease)): generating a mixture of guanylylated and un-guanylylated RTCB

Molecule: NC(=O)c1ccc[n+]([C@@H]2O[C@H](COP(=O)(O)OP(=O)(O)OC[C@H]3O[C@@H](n4cnc5c(N)ncnc54)[C@H](O)[C@@H]3O)[C@@H](O)[C@H]2O)c1 [NAD^+]
- cryo-EM structure, 3.3 Å (RTCB–PYROXD1 complex): NAD^+ interacts with residues Gly157, Ile158, Arg374, His410 and Thr412

Molecule: Cc1cc2c(cc1C)N(C[C@H](O)[C@H](O)[C@H](O)COP(=O)(O)OP(=O)(O)OC[C@H]1O[C@@H](n3cnc4c(N)ncnc43)[C@H](O)[C@@H]1O)c1[nH]c(=O)[nH]c(=O)c1N2 [FADH^−]
- cryo-EM structure, 3.3 Å (RTCB–PYROXD1 complex; redox state FADH- inferred): PYROXD1 coordinates FADH^− with residues including Gly18, Ala21, Thr42, Ala43

- stoichiometry N (RTCB): 1
- half-life of the complex upon NADH removal (StrepII–GFP–RTCB [1]): ~2 min
B1: PYROXD1 (enzyme, human)
chain: T2 sequence (Q8WU10 1-500)
notes: human PYROXD1 (UniProt Q8WU10), amplified from HeLa cDNA, in pGEX-6P-1; FAD-containing flavoprotein; also called wild-type PYROXD1; WT; source: E. coli BL21(DE3), purified (Glutathione Sepharose, 3C cleavage, SEC); not shown: GST, N-terminal, cleaved
- Km (purified protein): 611.0 ± 98.3 µM

B2: PYROXD1 (Homo sapiens; W239A) (protein)
chain: T2 sequence (Q8WU10 1-500) with W239A
notes: full-length from HeLa cDNA, N-terminal GST cut off with 3C protease; E. coli BL21(DE3); FAD-containing
- Km (purified protein; text prints W293A, figure legend W239A): 1472.1 ± 105.0 µM

- binding result (StrepII–GFP–RTCB [2]): binds
B3: PYROXD1 D497A (enzyme, human)
chain: T2 sequence (Q8WU10 1-500) with D497A
notes: human PYROXD1 (UniProt Q8WU10) with D497A; source: E. coli BL21(DE3), purified (Glutathione Sepharose, 3C cleavage, SEC); not shown: GST, N-terminal, cleaved

- binding result (StrepII–GFP–RTCB [2]): binds
B4: PYROXD1 F499A (enzyme, human)
chain: T2 sequence (Q8WU10 1-500) with F499A
notes: human PYROXD1 (UniProt Q8WU10) with F499A; source: E. coli BL21(DE3), purified (Glutathione Sepharose, 3C cleavage, SEC); not shown: GST, N-terminal, cleaved

- binding result (StrepII–GFP–RTCB [2]): binds
B5: PYROXD1 Y498A (enzyme, human)
chain: T2 sequence (Q8WU10 1-500) with Y498A
notes: human PYROXD1 (UniProt Q8WU10) with Y498A; source: E. coli BL21(DE3), purified (Glutathione Sepharose, 3C cleavage, SEC); not shown: GST, N-terminal, cleaved

- binding result (StrepII–GFP–RTCB [2]): binds
B6: PYROXD1 D500A (enzyme, human)
chain: T2 sequence (Q8WU10 1-500) with D500A
notes: human PYROXD1 (UniProt Q8WU10) with D500A; source: E. coli BL21(DE3), purified (Glutathione Sepharose, 3C cleavage, SEC); not shown: GST, N-terminal, cleaved

- binding result (StrepII–GFP–RTCB [2]): binds
B7: PYROXD1 ∆500 (domain or fragment, human, UniProt Q8WU10 1-499, looked up)
chain: MEAARPPPTAGKFVVVGGGIAGVTCAEQLATHFPSEDILLVTASPVIKAVTNFKQISKILEEFDVEEQSSTMLGKRFPNIKVIESGVKQLKSEEHCIVTEDGNQHVYKKLCLCAGAKPKLICEGNPYVLGIRDTDSAQEFQKQLTKAKRIMIIGNGGIALELVYEIEGCEVIWAIKDKAIGNTFFDAGAAEFLTSKLIAEKSEAKIAHKRTRYTTEGRKKEARSKSKADNVGSALGPDWHEGLNLKGTKEFSHKIHLETMCEVKKIYLQDEFRILKKKSFTFPRDHKSVTADTEMWPVYVELTNEKIYGCDFIVSATGVTPNVEPFLHGNSFDLGEDGGLKVDDHMHTSLPDIYAAGDICTTSWQLSPVWQQMRLWTQARQMGWYAAKCMAAASSGDSIDMDFSFELFAHVTKFFNYKVVLLGKYNAQGLGSDHELMLRCTKGREYIKVVMQNGRMMGAVLIGETDLEETFENLILNQMNLSSYGEDLLDPNIDIEDYF
notes: human PYROXD1 (UniProt Q8WU10), C-terminal truncation ∆500 (lacks the C-terminal residue Asp500); source: E. coli BL21(DE3), purified (Glutathione Sepharose, 3C cleavage, SEC); not shown: GST, N-terminal, cleaved

- binding result (StrepII–GFP–RTCB [2]): binds
B8: PYROXD1 ∆E496 (enzyme, human)
chain: B7 chain with E496D, D497Y, Y498F, F499D
notes: source: E. coli BL21(DE3), purified (Glutathione Sepharose, 3C cleavage, SEC); not shown: GST, N-terminal, cleaved
